Experimental data: US20240360208A1 (Hoffmann-La Roche, published 2024)
One block for each binder: values may come before it.

Columns and labels:
[1] = molecular target: T1, human FcγRIIa on CHO-K1 cells (clone 138) (human, UniProt P12318 34-317); assay: cell-based or functional assay
T1 sequence (looked up): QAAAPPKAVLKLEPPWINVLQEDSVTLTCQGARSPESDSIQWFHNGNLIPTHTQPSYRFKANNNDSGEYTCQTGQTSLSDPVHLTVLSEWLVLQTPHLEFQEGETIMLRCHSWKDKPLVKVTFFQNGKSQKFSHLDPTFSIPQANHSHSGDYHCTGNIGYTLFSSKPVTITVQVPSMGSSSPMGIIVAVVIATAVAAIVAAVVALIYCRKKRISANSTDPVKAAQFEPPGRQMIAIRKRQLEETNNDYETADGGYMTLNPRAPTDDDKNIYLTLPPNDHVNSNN

[2] = molecular target: T2, human FcγRIIb receptor on CHO-K1 cells (clone 223) (human, UniProt P31994 43-310); assay: cell-based or functional assay
T2 sequence (looked up): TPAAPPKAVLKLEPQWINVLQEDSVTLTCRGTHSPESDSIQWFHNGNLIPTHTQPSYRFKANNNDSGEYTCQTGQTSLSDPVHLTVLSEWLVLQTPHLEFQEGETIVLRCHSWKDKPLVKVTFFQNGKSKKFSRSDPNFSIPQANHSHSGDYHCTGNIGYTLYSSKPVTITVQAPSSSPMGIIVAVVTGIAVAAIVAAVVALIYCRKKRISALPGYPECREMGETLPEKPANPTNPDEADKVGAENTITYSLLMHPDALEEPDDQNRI

[3] = molecular target: T3, human CCL2 (MCP1) - wild type (wt) (human, UniProt P13500 24-99); assay: cell-based or functional assay
[4] = molecular target: T4, human CCL2 (MCP1) - P8A variant (human, UniProt P13500 24-99); assay: SPR (Biacore T200), 37 °C, ACES pH 7.4; antibody captured on anti-human Fc, monomeric human CCL2 at 8 nM; response normalised to capture level
T4 construct: In-house point mutant that cannot dimerise; also called monomeric human CCL2; monomeric CCL2
Experimental: Anti-human Fc (GE Healthcare) was immobilized on each flow cells of a CM4 sensor chip using amine coupling kit (GE Healthcare) according to the recommended settings by the manufacturer. Antibodies and analytes were diluted into ACES pH 7.4 or pH 5.8 buffer (20 mM ACES, 150 mM NaCl, 1 mg/ml BSA, 0.05% Tween 20, 0.005% NaN3). […] Sensor surface was regenerated each cycle with 3M MgCl2.

[5] = molecular target: T3, human CCL2 (MCP1) - wild type (wt); assay: SPR T200, 25 C, anti-human Fc capture, 1:1 model, pH 7.1
Experimental: (§1) An antibody capture system was established. 13000 MAb<h-Fc-pan>M-R10Z8E9-IgG (Roche) were immobilized at 25° C. at 18 μg/ml in 10 mM sodium acetate buffer pH 5.0, by EDC/NHS coupling as described by the manufacturer. The capture system was regenerated by an injection at 20 μl/min with HBS buffer (100 mM HEPES pH 7.4, 1.5 M NaCl, 0.05% (w/v) Tween 20), followed by a 1 min 15 see injection with 10 mM NaOH and two 10 mM glycine buffer pH 2.5 injections for 1 min. Antibodies were captured were injected for 30 see at 10 μl/min at 80 nM concentration diluted in the respective system buffer. […] The analyte contact time was 3 min and the dissociation time was 10 min. Analyte kinetics were performed at 50 μl/min.
(§2) The Biaevaluation software V.3.0 was used according to the instructions of the manufacturer GEHC. A 1:1 binding model with RMAX local was applied to determine kinetic rates.

[6] = molecular target: T3, human CCL2 (MCP1) - wild type (wt); assay: SPR T200, 25 C, anti-human Fc capture, 1:1 model, pH 5.5
Experimental: as §1, §2

[7] = molecular target: T3, human CCL2 (MCP1) - wild type (wt); assay: SPR T200, 25 C, anti-human Fc capture, 1:1 model, pH 6.3
[8] = molecular target: T4, human CCL2 (MCP1) - P8A variant; assay: SPR T200, 37 C, antibody captured, 1:1 model
Experimental: (§3) Antibody clone supernatants were diluted 1:2 in system buffer and were captured for 1 min at 5 μl/min. […] Analyte kinetics were performed at 30 μl/min. As analyte in solution wt human CCL2 or monomeric CCL2 P8A variant CCL2 were used. Analytes were injected at 90 nM highest concentration. The analyte contact time was 3 min and the dissociation time was 10 min. The Biaevaluation software V.3.0 was used according to the instructions of the manufacturer GEHC. A 1:1 binding model with RMAX local was applied to apparently estimate kinetic rates.

[9] = molecular target: T3, human CCL2 (MCP1) - wild type (wt); assay: SPR T200, 37 C, antibody captured, 1:1 model
Experimental: as §3

[10] = molecular target: T3, human CCL2 (MCP1) - wild type (wt); assay: SPR T200, 25 C, anti-human Fc capture, 1:1 model, pH 7.4
Experimental: as §1, §2

[11] = molecular target: T3, human CCL2 (MCP1) - wild type (wt); assay: SPR T200, 25 C, anti-human Fc capture, 1:1 model, pH 7.9
Experimental: as §1, §2

[12] = molecular target: T3, human CCL2 (MCP1) - wild type (wt); assay: SPR T200, 25 C, anti-human Fc capture, 1:1 model, pH 5.9
Experimental: as §1, §2

[13] = molecular target: T3, human CCL2 (MCP1) - wild type (wt); assay: SPR T200, 25 C, anti-human Fc capture, 1:1 model, pH 8.3
Experimental: as §1, §2

[14] = molecular target: T3, human CCL2 (MCP1) - wild type (wt); assay: cell-based or functional assay; remark: listed apart in the source
[15] = molecular target: T3, human CCL2 (MCP1) - wild type (wt); assay: SPR, C1 chip, anti-human Fc capture, 25 C, pH 7.4, Langmuir 1:1
Experimental: The sample and system buffer was PBS-T (10 mM phosphate buffered saline including 0.05% Tween20) pH 7.4. The flow cell was set to 25° C.—and the sample block set to 12° C.—and primed with running buffer twice. The bispecific antibody was captured by injecting a 2 μg/ml solution for 60 see at a flow rate of 10 μl/min. Association was measured by injection of human CCL2 (wt) in various concentrations in solution for 150 see at a flow rate of 30 μl/min starting with 30 nM in 1:10 dilutions. The dissociation phase was monitored for up to 1200 sec and triggered by switching from the sample solution to running buffer. […] Bulk refractive index differences were corrected by subtracting the response obtained from a goat anti human IgG Fc surface. Blank injections are also subtracted (=double referencing). For calculation of kinetic parameters, the Langmuir 1:1 model was used.

[16] = molecular target: T3, human CCL2 (MCP1) - wild type (wt); assay: SPR T200, 25 C, anti-human Fc capture, 1:1 model, pH 6.7
[17] = molecular target: T2, human FcγRIIb receptor on CHO-K1 cells …; assay: cell-based or functional assay; remark: listed apart in the source

B1: P1AF8142 (CKLO2-CB-SG1095) (bispecific antibody)
chain 1: not shown
chain 2: QVQLVQSGAEVKKPGSSVKVSCKASGLTISHTYMHWVRQAPGQGLEWMGRIDPDNHNTKFDPKFQGRVTITADTSTSTAYMELSSLRSEDTAVYYCARGVFGFFEHWGQGTTVTVSSASTKGPSVFPLAPSSKSTSGGTAALGCLVKDYFPEPVTVSWNSGALTSGVHTFPAVLQSSGLYSLSSVVTVPSSSLGTQTYICNVNHKPSNTKVDKKVEPKSCGGSGGGGSGGDKTHTCPPCPAPELWNGPSVFLFPPKPKDTLMISRTPEVTCVVVDVSDEDPEVKFNWYVDGVEVHNAKTKPREELYNSTYRVVSVLTVLHRDWLNGKEYKCKVSNTALPKPIEKTISKAKGQRREPQVYTLPPCRDELTKNQVSLWCLVKGFYPSDIAVEWESNGQPENNYKTTPPVLDSDGSFFLYSKLTVDKSRWQQGNVFSCSVMHEALHAHYTRKELSLSPGKGGSGGGGSGGDIQMTQSPSSLSASVGDRVTITCKAFEDIYNRRAWYQQKPGKAPKLLIHGATSLEHGVPSRFSGSGSGTDYTLTISSLQPEDFATYYCQQFWSAPYTFGGGTKVEIKRTVAAPSVFIFPPSDEQLKSGTASVVCLLNNFYPREAKVQWKVDNALQSGNSQESVTEQDSKDSTYSLSSTLTLSKADYEKHKVYACEVTHQGLSSPVTKSFNRGEC
EC50 (read off the curve) of the depletion of CCL2 from the supernatant of FcγRIIa CHO cells [1]: ~0.1 nM
Depletion level max (%) of CCL2 from the supernatant [2]: 80%
EC50 [nM] of CCL2 depletion [2]: 0.13 nM
EC90 [nM] of CCL2 depletion [2]: 0.5 nM
IC50, inhibition of THP-1 migration (chemotaxis assay) [3]: 0.2 µg/mL

B3: ABN912 (antibody, IgG1, V domains shown)
VH: EVQLVQSGGGLVQPGGSLRLSCAASGFTFSHYWMSWVRQAPGKGLEWLANIEQDGSEKYYVDSVKGRFTISRDNAKNSLYLQMNSLRAEDTAVYFCARDLEGLHGDGYFDLWGRGTLVTVSS
VL: AIQLTQSPSSLSASVGDRVILTCRASQGVSSALAWYQQKPGKAPKLLIYDASSLESGVPSRFSGSGSGPDFTLTISSLQPEDFATYFCQQFNSYPLTFGGGTKVEIK
notes: IgG1 with kappa light chain; also called AB912; CCL2-0003
Kd [5]: 0.02 nM
t 1/2-diss. [5]: 20 min
Kd [6]: 2000 nM
t 1/2-diss. [6]: 0.03 min
Kd [7]: 1 nM
t 1/2-diss. [7]: 3 min
Kd [8]: 0.046 nM
T1/2 [8]: 25 min
Kd [9]: 0.036 nM
T1/2 [9]: 33 min
Kd [10]: 0.01 nM
t 1/2-diss. [10]: 33 min
Kd [11]: 0.004 nM
t 1/2-diss. [11]: 25 min
Kd [12]: 13 nM
t 1/2-diss. [12]: 1 min
Kd [13]: 0.004 nM
t 1/2-diss. [13]: 35 min
THP1 chemotaxis [fold change compared to IgG control] [14]: 6.5 fold
t 1/2* [15]: 27 min
Kd [16]: 0.2 nM
t 1/2-diss. [16]: 8 min

Further lines, results first:

binding result [4]: binds
B2: CKLO04 (IgG1 wild type) (bispecific antibody, V domains shown)
VH 1: QVQLVQSGAEVKKPGSSVKVSCKASGLTISHTYMHWVRQAPGQGLEWMGRIDPDNHNTKFDPKFQGRVTITADTSTSTAYMELSSLRSEDTAVYYCARGVFGFFDHWGQGTTVTVSS
VL 1: DIQMTQSPSSLSASVGDRVTITCKATEDIYNRLAWYQQKPGKAPKLLIHGATSLEHGVPSRFSGSGSGTDYTLTISSLQPEDFATYYCQQFRSAPYTFGGGTKVEIK
VH 2: QVQLVQSGAEVKKPGSSVKVSCKASGGTFSHYGISWVRQAPGQGLEWMGGIIHIFHTANYAQKFQGRVTITADESTSTAYMELSSLRSEDTAVYYCARYDAHYGELDFWGQGTLVTVSS
VL 2: EIVLTQSPATLSLSPGERATLSCRASQHVSDAYLAWYQQKPGQAPRLLIYDASDRAEGVPARFSGSGSGTDFTLTISSLEPEDFAVYYCHQYIHLHSFTFGQGTKVEIK
notes: CrossMab, IgG1 wild type with knobs-into-holes; also called CKLO4; 11K2H1503/11K2L1201//CNTO888H0625/CNTO888L0616

EC50 (read off the curve) of the depletion of CCL2 from the supernatant of FcγRIIb CHO cells [17]: ~1 nM
IC50, inhibition of THP-1 migration (chemotaxis assay) [3]: 0.3 µg/mL
B4: CKLO2-GG03/GG04 (=P1AF8140) (bispecific antibody)
heavy 1: DIQMTQSPSSLSASVGDRVTITCKAFEDIYNRRAWYQQKPGKAPKLLIHGATSLEHGVPSRFSGSGSGTDYTLTISSLQPEDFATYYCQQFWSAPYTFGGGTKVEIKSSASTKGPSVFPLAPSSKSTSGGTAALGCLVKDYFPEPVTVSWNSGALTSGVHTFPAVLQSSGLYSLSSVVTVPSSSLGTQTYICNVNHKPSNTKVDKKVEPKSCDKTHTCPPCPAPEYLGGDSVFLFPPKPKDVLMISRTPEVTCVVIDVSHEDPEVKFNWYVDGVEVHNAKTKPREEQYNSTYRVVSVLPVLHRDWLNGKEYKCKVSNKALPKPIEKTISKAKGQRREPQVYTLPPCREEMTKNQVSLWCLVKGFYPSDIAVEWESNGQPENNYKTTPPVLDSDGSFFLYSKLTVDKSRWQQGNVFSCSVMHEALHAHYTRKELSLSP
heavy 2: not shown
light 1: QVQLVQSGAEVKKPGSSVKVSCKASGLTISHTYMHWVRQAPGQGLEWMGRIDPDNHNTKFDPKFQGRVTITADTSTSTAYMELSSLRSEDTAVYYCARGVFGFFEHWGQGTTVTVSSASVAAPSVFIFPPSDEQLKSGTASVVCLLNNFYPREAKVQWKVDNALQSGNSQESVTEQDSKDSTYSLSSTLTLSKADYEKHKVYACEVTHQGLSSPVTKSFNRGEC
light 2: EIVLTQSPATLSLSPGERATLSCRASQHVSDAYLAWYQQKPGQAPRLLIYDASDRAEGVPARFSGSGSGTDFTLTISSLEPEDFAVYYCHQYIHLHSFTFGQGTKVEIKRTVAAPSVFIFPPSDRKLKSGTASVVCLLNNFYPREAKVQWKVDNALQSGNSQESVTEQDSKDSTYSLSSTLTLSKADYEKHKVYACEVTHQGLSSPVTKSFNRGEC
